Entries after “also recorded” stand apart in the source; their conditions may differ. Values belong to the substance of their own block, whether it stands above or below them. Ends that are not written are not given here.
Assays:
RI (A98S) = biological target: T1, RI (A98S) (Bos taurus, UniProt P00514, A98S); assay: R-overlay (solid-phase binding) of 32P-labelled RI on membrane-synthesized peptides; set-up: species or system bovine; conditions: for RI binding (RI-32P-overlay, autoradiography): peptides on membrane, qualitative
T1 construct: made in house; host or cells: E. coli BL21 (B121 [sic])
T1 sequence (P00514 whole entry A98S): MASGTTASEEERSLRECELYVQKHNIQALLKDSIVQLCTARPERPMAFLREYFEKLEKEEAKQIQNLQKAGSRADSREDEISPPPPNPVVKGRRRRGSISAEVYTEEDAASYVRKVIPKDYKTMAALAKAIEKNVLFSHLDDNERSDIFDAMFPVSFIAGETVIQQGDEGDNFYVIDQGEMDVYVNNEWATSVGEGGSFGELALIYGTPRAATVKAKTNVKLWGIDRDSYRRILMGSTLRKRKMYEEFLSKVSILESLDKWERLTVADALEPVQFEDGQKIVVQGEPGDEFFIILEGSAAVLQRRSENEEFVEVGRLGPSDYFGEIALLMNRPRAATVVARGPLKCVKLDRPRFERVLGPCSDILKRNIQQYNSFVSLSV
Experimental: Autospot Peptide Array. Peptide arrays were synthesized on cellulose paper by using an Autospot Robot ASP222 (ABiMED, Langenfeld, Germany) as described (Frank, R., 1992, Tetrahedron 48, 123-132) or Multipep automated peptide synthesizer (INTAVIS Bioanalytical Instruments AG, Koeln, Germany) as described (Frank, R., 1992, Tetrahedron 48, 123-132).
R-overlay. R-overlays were conducted as described, using ^32P-labeled recombinant murine RII (Hausken, Z. E., et al., 1998 in Protein Targeting Protocols, ed. Clegg, R. A. (Humana, Totowa, N.J.), Vol. 88, pp. 47-64) or recombinant bovine RI (A98S) or by cold RI-overlay where bound RIα was detected by Western blot. Cold RI-overlay was performed by incubating the membranes with 250 nM RI overnight at 4° C., then the membranes were washed five times in TBST for 5 min. Detection of RI was performed using an anti-RI rabbit polyclonal antibody (Santa Cruz) at a concentration of 0.2 μg/μl for 1 hour at 4° C. Then the membranes were washed five times for 5 minutes in PBS followed by incubation with HRP-conjugated anti-rabbit IgGs (1:5000) for 1 hour at 4° C. The membranes were washed in PBS as described above before detection by Supersignal West Dura Extended Duration Substrate (Pierce).
Densitometric analysis. The densitometric analysis was performed using Scion Image (www.scioncorp.com) (Scion Coorperation, Mo., USA) or Quantity One version 4.5.0, (BioRad).

PKA-RIIα [1] = biological target: T2, PKA-RIIα (Homo sapiens, UniProt P13861); assay: Immunofluorescence of PKA-RIIα at centrosomes in human T cells; format: cell-based; set-up: endogenous in cells; host or cells: human peripheral blood CD3+ T cells; conditions: human peripheral blood T cells
T2 sequence (P13861 whole entry): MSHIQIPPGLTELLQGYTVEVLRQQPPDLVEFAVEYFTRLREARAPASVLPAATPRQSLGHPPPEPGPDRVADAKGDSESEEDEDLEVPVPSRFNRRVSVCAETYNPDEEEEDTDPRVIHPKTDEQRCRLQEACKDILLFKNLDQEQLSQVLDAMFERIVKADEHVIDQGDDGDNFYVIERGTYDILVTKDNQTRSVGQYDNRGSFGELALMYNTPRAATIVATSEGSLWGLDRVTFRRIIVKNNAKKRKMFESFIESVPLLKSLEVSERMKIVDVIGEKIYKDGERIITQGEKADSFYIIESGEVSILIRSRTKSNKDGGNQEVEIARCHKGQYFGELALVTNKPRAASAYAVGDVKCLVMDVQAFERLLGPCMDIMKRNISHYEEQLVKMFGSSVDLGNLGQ
Experimental: Blots were developed by using Supersignal West Pico substrate (Pierce). For immunofluorescence polyclonal and monoclonal antibodies against RIα (Biogenesis), RIIα (Transduction laboratories) and AKAP450 (A24, Tasken et al., 2001, J. Biol. Chem, 276:21999-22002) were used as primary antibodies. Secondary antibodies (all Molecular Probes) were Alexa-488 conjugated anti-mouse and anti-rabbit IgG (both goat) and Alexa-555 anti-rabbit IgG (goat).
Immunofluorescence analysis of cells was performed as previously described (Collas, P. et al., 1996, J. Cell Biol. 135, 1715-1725). RI was detected by using an anti-RI monoclonal antibody (Transduction Laboratories) as a primary antibody at a […] and Alexa-488 as a secondary antibody (1:600, Goat anti Mouse IgGs, Molecular Probes). Immunofluorescence was performed on Y1 cells attached to collagen/fibronectin coated coverslips. Mitochondria were stained using MitoTracker Red CMXRos (Molecular Probes) in fresh medium with incubation at 37° C. for 30 min prior to cell fixation. All cells were washed in PBS, fixed with 3% paraformaldehyde and permeabilised using 0.1% Triton X-100. […] Alternatively, fluorescently labeled cells were examined using a Leica TCS SP1 confocal fluorescence microscope (Leica, Heidelberg, Germany) equipped with an Ar (488 nm) and two He/Ne (543 and 633 nm) laser lines. […]

PKA-RIIα [2] = biological target: T2, PKA-RIIα; assay: Displacement of PKA-RII from the particulate fraction in T cells; format: cell-based; set-up: endogenous in cells; host or cells: human peripheral blood CD3+ T cells; conditions: 25 μM or 50 μM
Experimental: Displacement of PKA-RII from the particulate Fraction in T-cells. Negatively selected CD3^+ T-cells (20×10^6/3 ml/well) were cultured in 6-well plates with 0-50 μM Arg11-SuperAKAPIS (or 0-50 μM M3-Arg11) for 12 hours. Cells were lysed in 250 μl lysis buffer (50 mM Tris pH 7.4, 100 mM NaCl, 5 mM EDTA, 50 mM NaF, 10 mM Na-pyrofosfat, 1 mM Na3VO4, 1 mM PMSF, 0.7% triton X-100) and centrifuged at 14 000×g for 10 min. The sedimented proteins were resuspended in loading dye before being resolved by SDS/PAGE and detected by immunoblotting.
To assess the effect of MEME3-Arg11 on anchoring of PKA type II, T cells were treated with MEME3-Arg11 or Arg11-super-AKAP-is (as a positive control) and particulate fractions were isolated, followed by 10% PAGE and blotting onto a PVDF membrane (fraction no. 2-4, FIG. 17 in upper panel) and analysed by immunoblotting using antibodies against PKA-RIIα (FIG. 17, upper panel). The levels of PKA-RIIα in the particulate fractions were measured by densitometry of the autoradiograms (lower panel). The level of PKA-RIIα was set relative to that of the internal standard PKCα.

R-binding of D-amino acid derivatives (RIα and RIIα overlay) (RI (A98S); peptidomimetics on membrane): accepted
Substance: LEQYANQLADQIIKEATe [E18e]

displacement of PKA-RIIα from centrosomes (PKA-RIIα [1]): specifically displaced PKA-RIIα | reduction of PKA-RIIα in particulate fraction (PKA-RIIα [2]): approximately 80%
Substance: Arg11-super-AKAP-is: RIIα specific peptide, SuperAKAPIS (QIEYVAKQIVDYAIHQA) with eleven arginine residues (also: eleven arginine residues attached (Arg11), place not given here) [reference compound]

Substance: LKQYANQLASQVIKEATE [PDSM]
RI binding (RI-32P-overlay, autoradiography) (RI (A98S)): same RI binding affinity as the full length PDSM sequence; also recorded: much higher RIα affinity compare to that of PV-38; also recorded: higher binding to RIα

Substance: DELKQYANQLASQVIKEATE [PDSM consensus sequence]
RI binding (RI-32P-overlay, autoradiography) (RI (A98S)): higher affinity for RI than the other R-binding motifs
